Substrate in the data set: CC(C)=CCC/C(C)=C/CC/C(C)=C/CC/C(C)=C/COP(=O)(O)OP(=O)(O)O
The data set can be described thus: purified protein. In kind it is biochemical, Taxus chinensis. As to conditions: 1 mM MgCl2, 25 mM HEPES pH 8.5, 10% glycerol, 5 mM DTT, 32 °C, 30 min, GGPP spiked with [1-3H]-GGPP.

B1: TS2 (Taxus chinensis) (protein)
chain: SGSPTKLATENANAVAESNLIPRLSANYHGDLWHHGVIQTLQTPYQESSSYQERAEELIVKIKDMFKAVEEGAISPSAYDTAWVARVPDGSEKPRFPQALNWLLHNQLQDGSWGLESHFMLSDRLLSTLNSVISLLVWKTGQQQVEQGTLFITENLKLLEGEDELPPDFEIIFPALLQKAKALGMSLPDHDLPFIKSLSVAREARLASYTDNNIPASMLNALEGLEEVIDWDKIMRFQMPCLYSIDLLERLSLVDNIEHLGIGRHFKQEIKVALDYVYRYWSERGIGLGRDSLIPDLNTTALGLRTLRAHGYNVSSEVLNNFKDENGRFFSSLGQTHVELRSMVNLLRASDLAFPDEPLMDDAKIFAEAYLRDALATRISTNTKLFKEIDYAVEYPWHMSIPRLEARSYIDVYDDDYTWQNKTLYRMSNLSNAYCLELAKLDFNIVQSLHQEELKLLTRWWKESGMADINFTRHRVAEVYFSSATFEPEYSSTRIAFTKIGCLQVLFDDMADIFATLDELRDFTEGVKRWDTSLIHKLPDCMQTCFRVWFNLMEEVNNDVSNVQGRDMLNHIRKPWELYFNCYVQEREWLDAGYIPTLEEYLKTYSISVGLGPCTLQPILLMGDIVKDDVVEKVHYPSNLFELVSLSWRLTNDTKTYQAEKARGQQASGIACYMKDNPGSTEEDAIKYICGVVDRALKEACFEYFKPADDVPMSCKSFIFNLRLCVQIFYKFIDGYGIANEEIKDYIRKVYIEPIQV
notes: 60-residue N-terminal (plastid transit) truncation, His-tagged, pET28b, E. coli, purified
As for B1, the Km is 8.6 ± 1.5 µM and the kcat amounted to 3280 s⁻¹.

B2: TS1 (Taxus chinensis) (protein)
chain: MSSSTGTSKVVSETSSTIVDDIPRLSANYHGDLWHHNVIQTLETPFRESSTYQERADELVVKIKDMFNALGDGDISPSAYDTAWVARVATISSDGSEKPRFPQALNWVLNNQLQDGSWGIESHFSLCDRLLNTINSVIALSVWKTGHSQVEQGTEFIAENLRLLNEEDELSPDFEIIFPALLQKAKSLGINLPYDLPFIKYLSTTREARLTDVSAAADNIPANMLNALEGLEEVIDWKKIMRFQSKDGSFLSSPASTACVLMNTGDEKCFTFLNNLLDKFGGCVPCMYSIDLLERLSLVDNIEHLGIGRHFKQEIKVALDYVYRHWSERGIGWGRDSLVPDLNTTALGLRTLRTHGYDVSSDVLNNFKDENGRFFSSAGQTHVELRSVVNLFRASDLAFPDEGAMDDARKFAEPYLRDALATKISTNTKLFKEIEYVVEYPWHMSIPRLEARSYIDSYDDDYVWERKTLYRMPSLSNSKCLELAKLDFNIVQSLHQEELKLLTRWWKESGMADINFTRHRVAEVYFSSATFEPEYSATRIAFTKIGCLQVLFDDMADIFATLDELKSFTEGVKRWDTSLLHEIPECMQTCFKVWFKLMEEVNNDVVKVQGRDMLAHIRKPWELYFNCYVQEREWLDAGYIPTFEEYLKTYAISVGLGPCTLQPILLMGELVKDDVVEKVHYPSNMFELVSLSWRLTNDTKTYQAEKARGQQASGIACYMKDNPGATEEDAIKHICRVVDRALKEASFEYFKPSNDIPMGCKSFIFNLRLCVQIFYKFIDGYGIANEEIKDYIRKVYIDPIQV
notes: as for B1
Turning to B2, the Km was found to be 5.5 ± 1.6 µM and the kcat is 1705 s⁻¹.

Source of the values: article PMC8367818, “The Taxus genome provides insights into paclitaxel biosynthesis” (Nature Plants, 2021).
